Data on 167 variants can be found in the RNAGym collection of RNA variant scans (doi:10.7554/elife.80360).

B1: HDV Ribozyme (parent)
chain: GGCCGGCAUGGUCCCAGCCUCCUCGCUGGCGCCGGCUGGGCAACAUUCCGAGGGGACCGUCCCCUCGGUAAUGGCGAAUGGGACCCA

In the data set the parent is B1. Description: self-cleavage, relative activity (ratio to wild type); higher = more cleavage; co-transcriptional.
Regarding G74U A87U, the self-cleavage was 0.506.

A78C G80A: the self-cleavage is 0.174.

For A78C G80U, the self-cleavage worked out at 0.174.

In the case of A78C G80C, the self-cleavage came to 0.0514.

With G73C G80A, the self-cleavage is 0.284.

For C75G G81A, the self-cleavage is 0.0332.

C75G G81U: the self-cleavage came out at 0.133.

Regarding G74U C84G, the self-cleavage amounted to 0.126.

Turning to G76U C86U, the self-cleavage was 0.852.

Regarding G76A G81C, the self-cleavage is 0.302.

In the case of C75A A77G, the self-cleavage was 0.0875.

Regarding A78G G81A, the self-cleavage was found to be 0.115.

Consider G74A A77U, for which the self-cleavage was 0.267.

As for C75A C84U, the self-cleavage came out at 0.0545.

Regarding C75A C84A, the self-cleavage is 0.269.

For the variant G73A C86A, the self-cleavage worked out at 0.781.

Consider A77C A78C, for which the self-cleavage came to 0.208.

On to G74A A78U, for which the self-cleavage amounted to 0.173.

As to G73C A78G, the self-cleavage was 0.237.

With G76A C86A, the self-cleavage was determined as 0.855.

Consider A78U C84A, for which the self-cleavage came out at 0.185.

As for A78U C84G, the self-cleavage turned out to be 0.0396.

In the case of G74U C86A, the self-cleavage was 0.389.

Take G74U C86U: the self-cleavage amounted to 0.648.

With G73U A83G, the self-cleavage is 0.219.

C75A G81C: the self-cleavage was determined as 0.157.

As for C75A G81U, the self-cleavage was determined as 0.155.

Turning to A78C C86G, the self-cleavage was 0.14.

On to A78C C86U, for which the self-cleavage was 0.225.

Regarding A78C C86A, the self-cleavage turned out to be 0.192.

On to G76U A87C, for which the self-cleavage was 1.17.

With G76U A87G, the self-cleavage was determined as 1.13.

On to G73A G76A, for which the self-cleavage turned out to be 0.665.

For A77G G82C, the self-cleavage amounted to 0.389.

Regarding G74A C86G, the self-cleavage was 0.375.

As to G74A C86A, the self-cleavage came out at 0.537.

Consider G73C G76A, for which the self-cleavage was found to be 0.604.

For the variant G73C C75U, the self-cleavage was 0.0755.

As to G76U A83G, the self-cleavage was found to be 0.787.

Take G76U A83U: the self-cleavage came to 0.481.

As for G76U A83C, the self-cleavage was 0.755.

As to G73C G81A, the self-cleavage came out at 0.0817.

For the variant A77C A87U, the self-cleavage was 0.466.

Regarding G74A U79A, the self-cleavage turned out to be 0.0852.

In the case of G73U G74U, the self-cleavage stood at 0.22.

Turning to G73U G74C, the self-cleavage came out at 0.126.

Take G74U A77C: the self-cleavage stood at 0.123.

A78U A83C: the self-cleavage amounted to 0.324.

For A77G C84G, the self-cleavage was 0.573.

With A77G C84A, the self-cleavage is 0.464.

As for A77U C85G, the self-cleavage worked out at 0.299.

As to A77U C85U, the self-cleavage is 0.96.

In the case of G74A A87G, the self-cleavage was found to be 0.339.

For the variant A77U A87C, the self-cleavage turned out to be 0.655.

As to C75U G82C, the self-cleavage stood at 0.108.

As to C75G U79C, the self-cleavage was determined as 0.113.

Turning to C75A C86U, the self-cleavage was 0.0615.

Take G76U A77G: the self-cleavage was determined as 0.978.

With G74C G82A, the self-cleavage stood at 0.166.

Turning to G74C G82C, the self-cleavage stood at 0.0475.

Take G74C C84U: the self-cleavage was 0.196.

For the variant G74U U79G, the self-cleavage amounted to 0.199.

G74U G80U: the self-cleavage was determined as 0.0956.

A77G C85A: the self-cleavage stood at 0.851.

In the case of G76C G81C, the self-cleavage amounted to 0.0875.

Consider G73U C85U, for which the self-cleavage came to 0.458.

On to A78C C85G, for which the self-cleavage was 0.0852.

Regarding C75A A78G, the self-cleavage stood at 0.0898.

As for C75A A78C, the self-cleavage stood at 0.104.

With G74C A77G, the self-cleavage was determined as 0.145.

For the variant G74C G80A, the self-cleavage was 0.227.

On to C75G G80C, for which the self-cleavage amounted to 0.0709.

A78U C85G: the self-cleavage was found to be 0.326.

For the variant A77U G82C, the self-cleavage is 0.208.

As to G74U G82A, the self-cleavage turned out to be 0.217.

With G74A G82U, the self-cleavage worked out at 0.125.

As to G73C A77G, the self-cleavage was found to be 0.44.

Take G73C G74U: the self-cleavage was 0.166.

Take G73C G74A: the self-cleavage was 0.422.

As to A77C G82A, the self-cleavage came out at 0.358.

As for A78U G81A, the self-cleavage is 0.182.

Regarding C75U C84U, the self-cleavage amounted to 0.0767.

Consider C75U G81C, for which the self-cleavage was 0.16.

As for G73U C75U, the self-cleavage is 0.111.

As for G73U C75A, the self-cleavage is 0.107.

Turning to C75A U79G, the self-cleavage stood at 0.208.

For the variant C75A U79A, the self-cleavage was 0.256.

Consider G74A C85G, for which the self-cleavage was 0.601.

In the case of G74A C85U, the self-cleavage came out at 0.462.

For the variant A78G C85U, the self-cleavage was found to be 0.748.

C75G C86U: the self-cleavage worked out at 0.156.

Consider C75G C86G, for which the self-cleavage was found to be 0.

Consider C75U G80U, for which the self-cleavage is 0.178.

In the case of C75U G80C, the self-cleavage amounted to 0.142.

With G74A G76U, the self-cleavage is 0.727.

C75A A87C: the self-cleavage stood at 0.202.

As to G76C A77G, the self-cleavage was 1.

On to G73C C85U, for which the self-cleavage turned out to be 0.415.

With G73C C85G, the self-cleavage was found to be 0.527.

As to A77G G80C, the self-cleavage turned out to be 0.0437.

As for G76C C85U, the self-cleavage turned out to be 1.14.

For the variant G76C C85A, the self-cleavage was 0.873.

As to G76C C85G, the self-cleavage worked out at 1.23.

Turning to G76A A87C, the self-cleavage amounted to 1.03.

For G76A, the self-cleavage is 1.04.

On to G76C, for which the self-cleavage was 1.

As to G76U, the self-cleavage was determined as 1.03.

U79A A83C: the self-cleavage came out at 0.151.

For A77U G81C, the self-cleavage worked out at 0.157.

Consider C75U A78C, for which the self-cleavage was 0.

For A77U A83C, the self-cleavage is 0.231.

For the variant A77U A83G, the self-cleavage was 0.261.

Regarding G73C C86U, the self-cleavage is 0.914.

In the case of G76C A87G, the self-cleavage worked out at 1.08.

As for G76C A87U, the self-cleavage was determined as 1.1.

For the variant U79A C85G, the self-cleavage worked out at 0.997.

G74C C85G: the self-cleavage came out at 0.0791.

Take A78G G82A: the self-cleavage stood at 0.365.

As for G74U C85U, the self-cleavage worked out at 0.614.

Take G76A A77G: the self-cleavage stood at 1.04.

Turning to G76A A77U, the self-cleavage was 0.76.

Take G76A A77C: the self-cleavage turned out to be 0.657.

As for A78C A83U, the self-cleavage was determined as 0.166.

G74C A78C: the self-cleavage amounted to 0.185.

On to G74C A78U, for which the self-cleavage amounted to 0.332.

G74U A78U: the self-cleavage came out at 0.332.

G74C C75G: the self-cleavage was 0.0386.

On to G74U A83U, for which the self-cleavage is 0.259.

Regarding A77C C85G, the self-cleavage came out at 0.492.

Consider A77C C85A, for which the self-cleavage worked out at 0.506.

Consider A77C C86A, for which the self-cleavage turned out to be 0.407.

In the case of A77C G81C, the self-cleavage is 0.0504.

Take A77U C86A: the self-cleavage amounted to 0.831.

On to A77U C86U, for which the self-cleavage was 0.729.

As to C75U C86G, the self-cleavage turned out to be 0.145.

For G73U U79C, the self-cleavage was found to be 0.169.

With G73U U79A, the self-cleavage came out at 0.131.

On to C75U U79C, for which the self-cleavage stood at 0.172.

A77C C84U: the self-cleavage came to 0.326.

Turning to A78C G82C, the self-cleavage is 0.0831.

As for A78G U79A, the self-cleavage came to 0.317.

Turning to U79A C86U, the self-cleavage amounted to 1.02.

As to U79A C86G, the self-cleavage stood at 0.81.

Consider G76U A78G, for which the self-cleavage was 1.34.

Consider G76C C84G, for which the self-cleavage worked out at 0.618.

Take A78U U79A: the self-cleavage is 0.095.

A78G G80C: the self-cleavage was 0.329.

As for G74U C75A, the self-cleavage was 0.228.

On to G73U A87U, for which the self-cleavage is 0.374.

With G73U A87C, the self-cleavage is 0.385.

For the variant U79A G81C, the self-cleavage turned out to be 0.0504.

G73C A87C: the self-cleavage was found to be 0.592.

Consider G73C A87G, for which the self-cleavage came out at 0.454.

On to G73A C85G, for which the self-cleavage came out at 0.703.

As for G73A G82C, the self-cleavage turned out to be 0.172.

In the case of A77G C86A, the self-cleavage was found to be 1.15.

As for A77G C86G, the self-cleavage came to 0.886.

For the variant G73U A77U, the self-cleavage is 0.0811.

In the case of G76A U79G, the self-cleavage is 0.672.

Regarding C75G G82U, the self-cleavage was determined as 0.215.

A77U A78G: the self-cleavage was determined as 0.443.

Turning to A77U, the self-cleavage turned out to be 0.623.

With A77G, the self-cleavage was 0.887.

For the variant A77C, the self-cleavage was found to be 0.377.

With A78U G82U, the self-cleavage was determined as 0.197.

For the variant A78U G82C, the self-cleavage is 0.0302.

Turning to U79A A87G, the self-cleavage was 0.752.
